Molecular target: DNMT3A1 1-427 R181A/R183A (human, UniProt Q9Y6K1 1-427, R181A;R183A)
Test: EMSA; only marginally affected; EMSA: 15 mM HEPES pH 7.5, 75 mM NaCl, 0.05% Triton X-100, 0.05 mg/mL BSA, 10% glycerol, 1 mM DTT, 0.5 mg/mL salmon sperm DNA (nucleosomes), 2.4 nM tracer, 1 h on ice; full-length complex: 17.5 mM HEPES pH 8, 150 mM NaCl, 1.5 mM MgCl2, 2.5% glycerol, 1 mM DTT, 0.1 mg/mL BSA, on ice
Conditions: protein: recombinant; tags: His-MBP; label: 5' 6-FAM; blunt

DNMT3A1 1-427 R181A/R183A, sequence (Q9Y6K1 1-427 R181A/R183A): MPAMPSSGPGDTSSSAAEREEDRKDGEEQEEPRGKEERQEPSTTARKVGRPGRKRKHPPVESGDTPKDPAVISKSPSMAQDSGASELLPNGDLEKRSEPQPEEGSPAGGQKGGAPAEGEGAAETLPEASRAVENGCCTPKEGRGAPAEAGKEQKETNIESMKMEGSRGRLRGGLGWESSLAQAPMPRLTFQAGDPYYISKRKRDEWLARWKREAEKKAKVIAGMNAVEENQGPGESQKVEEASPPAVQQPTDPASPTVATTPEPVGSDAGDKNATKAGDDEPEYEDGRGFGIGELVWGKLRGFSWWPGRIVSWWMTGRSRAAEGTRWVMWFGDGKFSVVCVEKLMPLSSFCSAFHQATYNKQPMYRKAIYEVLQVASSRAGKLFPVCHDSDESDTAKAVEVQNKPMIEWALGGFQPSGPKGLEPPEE

B1: free 175 bp Widom601 DNA (dsDNA)
DNA 1: TATACGCGGCCGCCCTGGAGAATCCCGGTGCCGAGGCCGCTCAATTGGTCGTAGACAGCTCTAGCACCGCTTAAACGCACGTACGCGCTGTCCCCCGCGTTTTAACCGCCAAGGGGATTACTCCCTAGTCTCCAGGCACGTGTCAGATATATACATCCTGTGCAATGTGTTCCAT
DNA 2: ATGGAACACATTGCACAGGATGTATATATCTGACACGTGCCTGGAGACTAGGGAGTAATCCCCTTGGCGGTTAAAACGCGGGGGACAGCGCGTACGTGCGTTTAAGCGGTGCTAGAGCTGTCTACGACCAATTGAGCGGCCTCGGCACCGGGATTCTCCAGGGCGGCCGCGTATA
  binding result: binds

From doi:10.1101/2023.10.29.564595, “The N-terminal region of DNMT3A combines multiple chromatin reading motifs to guide recruitment”
